Assay results reported in the Human Domainome abundance scans (Beltran et al. 2025).
± gives the uncertainty stated by the source.

B1: RAS guanyl-releasing protein 1, residues 539 to 593; numbered along this chain, O95267 (parent)
chain: GFPHNFQETTYLKPTFCDNCAGFLWGVIKQGYRCKDCGMNCHKQCKDLVVFECKK

Variants of: B1
Assay: abundance fitness (aPCA) (normalised: wild type 0, dead -1); higher = more abundant; growth selection in yeast, the domain comes from the species named
Conditions: Homo sapiens

Abundance fitness of substitutions, site by site:
G26: Q -0.462 ± 0.1; R -0.616 ± 0.093; D -0.449 ± 0.084; M -0.345 ± 0.056; T -0.529 ± 0.14; K -0.442 ± 0.16; W -0.269 ± 0.06; V -0.736 ± 0.12; L -0.452 ± 0.083; N -0.562 ± 0.16; E -0.517 ± 0.14; C -0.563 ± 0.059; H -0.375 ± 0.092; F -0.703 ± 0.14; A -0.225 ± 0.094; I -0.946 ± 0.27
C41: E -0.414 ± 0.11; H -0.662 ± 0.32; Y 0.02 ± 0.1; M -0.281 ± 0.15; W -0.191 ± 0.073; F -0.331 ± 0.095; I -0.012 ± 0.091; T -0.035 ± 0.092; A -0.016 ± 0.072; V 0.068 ± 0.082; N -0.47 ± 0.24; K -0.139 ± 0.084; Q -0.484 ± 0.17; D -0.758 ± 0.33; L -0.023 ± 0.061
G38: A 0.032 ± 0.079; D -0.003 ± 0.11; E 0.077 ± 0.077; W -0.109 ± 0.071; C -0.095 ± 0.066; Q -0.281 ± 0.15; L -0.075 ± 0.051; Y -0.514 ± 0.23; F -0.071 ± 0.1; P -0.081 ± 0.12; T -0.282 ± 0.17; I -0.453 ± 0.17; S -0.02 ± 0.064; N 0.062 ± 0.14; M -0.095 ± 0.085
M39: L -0.122 ± 0.04; P -1.03 ± 0.064; N -0.15 ± 0.049; G -0.097 ± 0.049; Q -0.032 ± 0.067; W -0.157 ± 0.058; D -0.242 ± 0.066; T -0.142 ± 0.048; Y -0.1 ± 0.045; K -0.079 ± 0.055; I -0.115 ± 0.045; V -0.111 ± 0.046; F -0.158 ± 0.051; R -0.143 ± 0.048; C -0.455 ± 0.054; A -0.111 ± 0.041
C34: K -0.886 ± 0.25; A -0.81 ± 0.18; H -0.809 ± 0.38; Q -0.924 ± 0.26; W -0.891 ± 0.23; G -0.951 ± 0.083; T -0.776 ± 0.21; R -0.954 ± 0.15; M -0.649 ± 0.086; V -0.723 ± 0.12; D -0.269 ± 0.12; L -0.915 ± 0.094; Y -0.922 ± 0.38; S -0.947 ± 0.12; F -0.729 ± 0.071; I -0.724 ± 0.32
K29: Y -0.011 ± 0.12; D -0.618 ± 0.21; N 0.013 ± 0.12; C -0.171 ± 0.067; P -0.556 ± 0.078; W -0.256 ± 0.14; M -0.052 ± 0.12; S -0.086 ± 0.072; H -0.108 ± 0.24; E -0.386 ± 0.096; V -0.289 ± 0.071; A -0.124 ± 0.09; F -0.224 ± 0.14; R -0.103 ± 0.082; T -0.289 ± 0.099; I -0.252 ± 0.15
I28: R -0.084 ± 0.077; V -0.056 ± 0.044; C -0.223 ± 0.14; L -0.27 ± 0.093; W -0.111 ± 0.092; K 0.065 ± 0.11; D -0.429 ± 0.2; E -0.341 ± 0.062; N -0.243 ± 0.13; T -0.116 ± 0.07; Y -0.199 ± 0.093; Q -0.462 ± 0.17; S -0.136 ± 0.072; H -0.209 ± 0.13
R33: L -0.078 ± 0.078; Y -0.402 ± 0.12; C 0.122 ± 0.13; K 0.121 ± 0.091; A -0.167 ± 0.093; P -0.919 ± 0.13; S -0.025 ± 0.058; M 0.069 ± 0.083; N 0.286 ± 0.17; Q -0.262 ± 0.1; I 0.118 ± 0.076; F -0.017 ± 0.06; G -0.134 ± 0.1; V -0.1 ± 0.046; D -0.26 ± 0.14; E 0.129 ± 0.079; W 0.004 ± 0.096
G31: S -0.482 ± 0.059; D -0.597 ± 0.12; M -0.461 ± 0.32; C -0.352 ± 0.08; P -1.08 ± 0.37; A -0.092 ± 0.077; F -0.205 ± 0.15; V -0.479 ± 0.067; K -0.748 ± 0.13; W -0.901 ± 0.21; H -0.559 ± 0.12; L -0.663 ± 0.066; R -0.719 ± 0.1; E -0.414 ± 0.11; N -0.717 ± 0.3; Y -0.06 ± 0.13; I -0.685 ± 0.22
K35: T -0.022 ± 0.08; P -0.134 ± 0.11; H -0.029 ± 0.11; Q 0.1 ± 0.097; S -0.026 ± 0.07; A 0.041 ± 0.074; I -0.009 ± 0.049; N -0.297 ± 0.11; G -0.118 ± 0.088; E 0.039 ± 0.087; V -0.135 ± 0.07; D -0.096 ± 0.14; W -0.19 ± 0.095; R -0.004 ± 0.067; Y 0.024 ± 0.11; C -0.13 ± 0.096; L 0.021 ± 0.044; M -0.266 ± 0.099; F -0.193 ± 0.098
C37: Q -0.87 ± 0.32; L -0.953 ± 0.1; A -1.25 ± 0.4; P -1.07 ± 0.24; V -0.959 ± 0.098; K -0.933 ± 0.32; F -0.924 ± 0.18; R -0.879 ± 0.077; Y -0.708 ± 0.29; E -0.967 ± 0.41; M -0.904 ± 0.24; N -0.824 ± 0.3; G -1.14 ± 0.14; T -0.427 ± 0.1; S -0.625 ± 0.083; W -0.607 ± 0.11; D -0.864 ± 0.17
F23: I -0.032 ± 0.14; D -0.423 ± 0.11; Q -0.204 ± 0.12; K -0.297 ± 0.1; M -0.022 ± 0.089; L 0.105 ± 0.086; V -0.132 ± 0.084; G -0.328 ± 0.062; T -0.503 ± 0.14; Y -0.074 ± 0.12; P -0.409 ± 0.22; N -0.628 ± 0.16; W 0.014 ± 0.09; S -0.431 ± 0.072; C -0.166 ± 0.16; H -0.706 ± 0.2; E -0.333 ± 0.12; A -0.433 ± 0.13; R -0.242 ± 0.088
V27: P -0.297 ± 0.1; G -0.19 ± 0.046; D -0.657 ± 0.17; E -0.17 ± 0.1; H -0.516 ± 0.37; S -0.423 ± 0.078; W -0.22 ± 0.12; R -0.647 ± 0.11; L -0.063 ± 0.07; A -0.102 ± 0.12; C -0.192 ± 0.14; F 0.027 ± 0.11; K -0.434 ± 0.091; Y -0.018 ± 0.072; I -0.119 ± 0.1
Q30: P -0.669 ± 0.18; R -0.519 ± 0.1; N -0.495 ± 0.15; A -0.597 ± 0.12; K -0.599 ± 0.3; H -0.663 ± 0.21; S -0.54 ± 0.061; Y -0.693 ± 0.19; W -0.586 ± 0.2; F -0.756 ± 0.21; E -0.589 ± 0.058; V -0.617 ± 0.1; G -0.52 ± 0.11; L -0.765 ± 0.12; I -0.872 ± 0.24
N40: A -0.081 ± 0.063; Y -0.285 ± 0.055; C -0.137 ± 0.06; H -0.127 ± 0.047; G -0.08 ± 0.052; D -0.023 ± 0.053; L -0.349 ± 0.045; K -0.17 ± 0.063; P -0.144 ± 0.04; E -0.082 ± 0.061; Q -0.02 ± 0.072; V -0.063 ± 0.044; I -0.093 ± 0.049; M -0.087 ± 0.061; R -0.142 ± 0.059; T -0.042 ± 0.042
W25: A -0.148 ± 0.078; M -0.247 ± 0.13; R -0.217 ± 0.067; L -0.286 ± 0.087; Q -0.128 ± 0.074; H -0.226 ± 0.15; D -0.121 ± 0.15; C -0.558 ± 0.17; N -0.377 ± 0.17; K -0.206 ± 0.074; P -0.07 ± 0.11; T 0.157 ± 0.1; S -0.246 ± 0.097; E -0.047 ± 0.093; V -0.102 ± 0.05; Y -0.191 ± 0.09; F -0.143 ± 0.15; G -0.425 ± 0.076; I -0.038 ± 0.14
L24: H -0.465 ± 0.22; D -0.709 ± 0.31; F -0.006 ± 0.064; V -0.241 ± 0.098; I -0.049 ± 0.077; N -0.303 ± 0.06; S -0.325 ± 0.071; A -0.396 ± 0.096; P -0.612 ± 0.2; M 0.248 ± 0.11; W -0.617 ± 0.054; C -0.118 ± 0.11; Q -0.424 ± 0.13; R -0.375 ± 0.049; T -0.279 ± 0.11; E -0.369 ± 0.13; K -0.333 ± 0.1; Y -0.623 ± 0.1; G -0.48 ± 0.083
Y32: H -0.132 ± 0.1; F -0.312 ± 0.14; K -0.132 ± 0.047; V -0.007 ± 0.056; S -0.026 ± 0.084; I -0.184 ± 0.13; C -0.059 ± 0.07; R -0.393 ± 0.095; L -0.104 ± 0.055; E -0.166 ± 0.1; A -0.171 ± 0.073; M -0.101 ± 0.13; D -0.224 ± 0.12; T 0.093 ± 0.095; W -0.068 ± 0.085; G -0.186 ± 0.069; P -0.883 ± 0.2; Q -0.536 ± 0.23
H42: Q -0.862 ± 0.33; L -1.09 ± 0.1; A -0.841 ± 0.095; V -1.09 ± 0.35; M -0.76 ± 0.15; F -0.981 ± 0.23; R -0.916 ± 0.11; G -0.249 ± 0.082; C -0.416 ± 0.13; T -0.921 ± 0.22; P -0.859 ± 0.16; K -0.849 ± 0.077; W -0.286 ± 0.1; I -0.939 ± 0.16; N -0.815 ± 0.28; S -0.319 ± 0.046
D36: G 0.118 ± 0.08; K -0.139 ± 0.1; F -0.108 ± 0.16; R -0.055 ± 0.075; E -0.021 ± 0.099; P -0.2 ± 0.13; Y -0.296 ± 0.14; L -0.051 ± 0.072; Q -0.209 ± 0.11; T -0.02 ± 0.11; M -0.09 ± 0.11; W -0.041 ± 0.068; H -0.148 ± 0.29; A -0.146 ± 0.069; N -0.006 ± 0.12; V -0.289 ± 0.096; I -0.028 ± 0.22; C -0.245 ± 0.14; S -0.028 ± 0.075
